How the values were obtained:
natural Bet v 1 [1] = biological target: T1, natural Bet v 1 (Betula verrucosa (Betula pendula), UniProt P15494 2-160); experiment: SPR Biacore 4000, mAb captured on anti-human Fc, 25C;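 note: purified anti-Bet v 1 mAbs probed with natural Bet v 1 in HBS-ET buffer (HEPES, NaCl, EDTA, Tween-20) at pH 7.4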
T1 construct: Bought natural protein; also called nBet v 1
T1 chain: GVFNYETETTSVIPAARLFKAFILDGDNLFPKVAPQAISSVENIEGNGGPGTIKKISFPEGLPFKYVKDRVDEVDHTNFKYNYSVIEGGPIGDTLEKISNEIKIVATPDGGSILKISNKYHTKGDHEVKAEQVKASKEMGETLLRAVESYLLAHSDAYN

natural Bet v 1 [2] = biological target: T1, natural Bet v 1; experiment: SPR Biacore 4000, mAb captured on anti-human Fc, 37C;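 note: kinetic rate constants from SPR sensorgrams fitted to a 1:1 model with mass transport limitation, HBS-ET buffer pH 7.4, KD and t½ derived from the rate constants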
natural Bet v 1 [3] = biological target: T1, natural Bet v 1; experiment: SPR Biacore 4000, mAb captured on anti-human Fc, 37C; 37 C;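 for 100 nM natural Bet v 1 Bound (RU): kinetic rate constants from SPR sensorgrams fitted to a 1:1 model with mass transport limitation, HBS-ET buffer pH 7.4, KD and t½ derived from the rate constants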;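 for t½: kinetic rate constants from SPR sensorgrams fitted to a 1:1 model with mass transport limitation, HBS-ET buffer pH 7.4, KD and t½ derived from the rate constants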
[4] = biological target: T2, Hazel (Cor A 1, MyBiosource, Cat# MBS5304600) (Hazel, UniProt Q08407 2-160, limits assumed); experiment: SPR Biacore 4000, mAb captured by anti-human Fc, 25 C;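 note: allergen analyte binding to captured, purified anti-Bet v 1 monoclonal antibodies, SPR in HEPES-buffered saline running buffer with EDTA and Tween-20 at pH 7.4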
T2 construct: Bought reagent
T2 sequence (looked up): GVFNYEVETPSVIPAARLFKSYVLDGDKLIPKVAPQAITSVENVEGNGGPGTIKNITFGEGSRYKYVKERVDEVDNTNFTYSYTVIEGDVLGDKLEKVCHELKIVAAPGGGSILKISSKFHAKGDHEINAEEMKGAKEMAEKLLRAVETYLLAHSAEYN

Binder	100 nM Analyte Bound (RU) [4]	binding result [4]	other results
H4H17031P (antibody, human IgG4, V domains shown) VH: QVQLQQWGAGLLKPSETLSLTCVVYGESFGNYHWNWIRQSPGKRLEWIGEINQNGHTNYNPSLKSRVTISVDTSKIQFSLRLNSVTAADTAVYFCARGHNYVNSYFGLDVWGQGTTVTVSS VL: EIVMTQSPATLSVSPGERATLSCRTSQSVSISLAWYQRKPGQAPRLLIFGSSTRATGVPARFSGSGSGTEFTLTISSLQSEDFAVYYCQQYNNWPYTFGQGTKLEIK	–	–	100 nM natural Bet v 1 Bound (RU) (natural Bet v 1 [1]): 54 RU; Kd (natural Bet v 1 [1]): 13.5 nM; koff (natural Bet v 1 [1]): 0.00168 s⁻¹; kon (natural Bet v 1 [1]): 124000 M⁻¹ s⁻¹; t½ (natural Bet v 1 [1]): 6.8 min; 100 nM natural Bet v 1 Bound (RU) (natural Bet v 1 [2]): 63 RU; t½ (natural Bet v 1 [2]): 2.1 min; Kd (natural Bet v 1 [3]): 27.9 nM; koff (natural Bet v 1 [3]): 0.00544 s⁻¹; kon (natural Bet v 1 [3]): ~195000 M⁻¹ s⁻¹
H4H16991P (antibody, human IgG4, V domains shown, Fully human antibody with human IgG4 Fc (H4H prefix)) VH: QVQLVQSGAEVRKPGASVKVSCKASGYTFTGYYLHWVRQAPGQGLEWMGLINPNTGGTNFAQKFQGRVTMTRDSSISAAYMELSRLRSDDTAVYYCARQHWNRYFDNWGQGTLVTVSS VL: DIQMTQSPSTLSASVGDRVTITCRASQSVGNWLAWYQQKPGKAPKLLIQEASSIESGVPSRFSGSGSGTEFTLIVSSLQPDDFATYYCQQYNSYSWTFGHGTKVEIK	0 RU	no binding (tested: 100 nM)	–
H4H16992P (antibody, human IgG4 S228P, kappa, V domains shown, human IgG4 Fc; also called REGN5713; MAB1) VH: QVQLQESGPGLVKPSETLSLTCSVSGGSITNYFWTWIRQSPGKGLEWIGYIYYSGGTNYNPSLKSRVTISIDTSKNQFSLNMNSVTAADTAVYYCAGSYYYGVDVWGQGTTVTVSS VL: EIVLTQSPATLSLSPGERATLSCRASQSIKSFLAWYRQKPGQAPRLLIYDASNRPTGIPARFSGSGSGTDFTLTINSLESEDFAVYFCQQRNNWPFTFGPGTKVDIKR	0 RU	no binding (tested: 100 nM)	–
H4H17001P (antibody, human IgG4, V domains shown, Fully human antibody with human IgG4 Fc (H4H prefix)) VH: QVQLVESGGGLVKPGGSLRLSCAASGFTFSDYYMNWIRQAPGKGLEWISLISSSGSAIYYSDSVKGRFTISRDNARKSLYLQVNSLRAEDTAVYYCARDRGEWALGAYYYGLDVWGQGTTVTVSS VL: DIVMTQSPLSLPVTPGEPASISCRSSQSLLHSDGYNYLDWYLQKSGQSPQLLIYLGSNRASGVPDRFSGSGSGTDFTLKISRMEAEDVGVYYCMQALQTPYTFGQGTKLEIK	0 RU	no binding (tested: 100 nM)	–
H4H17015P (antibody, human IgG4, V domains shown, Fully human antibody with human IgG4 Fc (H4H prefix)) VH: QVQLQESGPGLVKPSQTLSLTCTVSGGSISSADHYWSWIRQQPGKGLEWIGYISYRGTTYYNPTLESRVSISVDTFKNQFSLMLHSVTVADTAVYYCAKVLQGLVRFRDYGFDVWGQGTTVTVSS VL: DIQLTQSPPFLSASVGDRVTITCWASQDISSYLAWYQQNPGKSPKLLIYDAFTLHTGVPSRFSGSGSGTEFTLTISSLQPEDFATFYCQHLYSFPFTFGPGTKVDIK	1 RU	no binding (tested: 100 nM)	–
H4H17027P (antibody, human IgG4, V domains shown, Fully human antibody with human IgG4 Fc (H4H prefix)) VH: EVQLVESGGGLVQPGGSLRLSCAASGFTFRNYAMHWVRQAPGEGLEWVAAIYRNSDSIDYADSVKGRFTISRDNAKNSLYLQMNSLKTEDTALYYCAKDEGFLEYFDSWGQGTLVTVSS VL: EIVLTQSPGTLSLSPGERASLSCRASQSVSSSFLAWYQQKPGQAPRLLIYGVSSRFIGIPDRFSGGGSGTDFTLTITRLEPEDFAVYYCQQYGRSPWTFGQGTKVEIK	0 RU	no binding (tested: 100 nM)	–
H4H17028P (antibody, human IgG4, V domains shown, Fully human antibody with human IgG4 Fc (H4H prefix)) VH: QVQLVESGGGVVQPGRSLRLSCAASGFTFSRYAIHWVRQAPGKGLEWVAVISYDGDDKYYGDSVKGRFTISRDNSKTMVYLHMNSLRTEDTAVYYCAKDGYSLYGKDYFDYWGQGTLVTVSS VL: EIVLTQSPGTLPLSPGERATLSCRASQSITNSYLAWYQQKPDQAPRLLIYGASSRATGIPDRFSGSESGTDFTLTISRLEPEDFAVYYCQQYVRSPWTFGQGTKVEIK	0 RU	no binding (tested: 100 nM)	–
H4H17031P (antibody, human IgG4, V domains shown, Fully human antibody with human IgG4 Fc (H4H prefix)) VH: QVQLQQWGAGLLKPSETLSLTCVVYGESFGNYHWNWIRQSPGKRLEWIGEINQNGHTNYNPSLKSRVTISVDTSKIQFSLRLNSVTAADTAVYFCARGHNYVNSYFGLDVWGQGTTVTVSS VL: EIVMTQSPATLSVSPGERATLSCRTSQSVSISLAWYQRKPGQAPRLLIFGSSTRATGVPARFSGSGSGTEFTLTISSLQSEDFAVYYCQQYNNWPYTFGQGTKLEIK	0 RU	no binding (tested: 100 nM)	–
H4H17033P (antibody, human IgG4, V domains shown, Fully human antibody with human IgG4 Fc (H4H prefix)) VH: QVQLVQSGAEVKKPGASVKVSCKASGYTFAAHYMHWVRQAPGQGLEWMGWINTYTGGTNYGQKFQGRVTMTRDTSITTAYMELSRLRSDDTAVYYCARDRRNWNFVFEYWGQGTLVTVSS VL: DIQMTQSPSSLSASVGDRVTISCRASQNIKNYLNWYQQKPGKAPKLLIYEASNLQSGAPSRFSGSGSGTDFTLTISSLEPEDFATYYCQQSFSIPWTFGQGTKVEIK	0 RU	no binding (tested: 100 nM)	–
H4H17038P2 (antibody, human IgG4 S228P, kappa, V domains shown, human IgG4 Fc; also called REGN5714; MAB3) VH: EVQLVESGGDLVQPGGSLRLSCAASGFTFSSYEMNWVRQAPGKGLEWVSFISDSSSNIYYADSVKGRFTISRDNAKKSLYLQMTSLRAEDTAVYYCAREAIGSTSFDNWGQGTLVTVSS VL: EIVMTQSPATLSVSPGERATLSCRASQSVSSSLAWYQQKPGQAPRRLIYSASTRATGIPARFSGSGSGTEFTLTISSLQSEDFAIYYCHQYNNWPLTFGGGTKVEIKR	0 RU	no binding (tested: 100 nM)	–
H4H17045P2 (antibody, human IgG4, V domains shown, Fully human antibody with human IgG4 Fc (H4H prefix)) VH: EVQLVESGGGLVQPGVSLRLSCVASGFTFSNYDITWIRQIPGKGLEWVSRISGSGGSTYFADSVKGRFIISRDNSKNTVYMQMNSLRAEDSAVYYCARRDSVLFSMNSWLDPWGQGTLVTVSS VL: not shown	0 RU	no binding (tested: 100 nM)	–
H4H17067P2 (antibody, human IgG4, V domains shown, Fully human antibody with human IgG4 Fc (H4H prefix)) VH: EVQLVQSGAEVKKPGESLKISCSGSGYRFTNYWIAWVRQMPGKGLEWMGLIHPDDSDIRYSPSFQGQVTFSVDKSINTAYLQWSSLKASDTAMYYCTRQDGILWSHNAWFDPWGQGTLVTVSS VL: not shown	-1 RU	–	–
H4H17082P2 (antibody, human IgG4 S228P, kappa, V domains shown, human IgG4 Fc; also called REGN5715; MAB2) VH: QVQLVQSGAEVKKPGASVKVSCKASGYTFISYNIFWVRQATGQGLDWMGWMNPFRNNAGYAQKFQGRVTVTWDTSISTAYMELSSLSSEDTAIYYCAREHGSSWGFFDYWGQGTLVTVSS VL: not shown	20 RU	–	–
